In the supplement of paper PMC9170038:

Each sequence was assayed on K4 kissing-loop RNA reporter (assay: apparent KD of K4 kissing-loop reporter; higher = weaker reporter binding). Conditions: Eterna round: R107; input ligand: theophylline 20 uM.
Procedure: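 RNA-MaP round R107: designed RNA switches with theophylline, tryptophan, arginine or FMN aptamers are transcribed on-chip within common flanks. They are titrated with a labelled K4 kissing-loop RNA reporter in RNA-MaP buffer (100 mM Tris pH 7.5, 80 mM KCl, 4 mM MgCl2), without ligand or with the indicated ligand. Median apparent KD per design.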
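Further: bound reporter read as fluorescence of individual clusters on recovered sequencing chips by microscopy, with normalized cluster intensities fitted with a binding model.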

Sequence	apparent KD of K4 kissing-loop reporter
UAAGAGGACCACUGCGAGAGUCCUCGAAUACGAGGACCGGUACGGCCGCCACUCGAUAAUUUGUAGUGAUGUUGCAAGUAAGAAU [BrourdMod 7 - Jieux - Same State Tryptophan A]	61.9 nM
GGUGCUGUCUGUGCCGCCCUCCUCGUCCCUCGAGGACCGGUACGGCCGCCACUCGAGUGAUGUUCGGGUAGCCAUCCCUGCCAGC [BDazzled - #20 Exc. Tryptophan A]	341 nM
GCAGGCGUAAAAGGAUAUCAGGCUCUCUAGACACGAGUGAUGUUUGUGUAGGUAACGUAAUAGGCAUGAGAAGGUUUCACUUAAA [theeternabot_sameState_KL_FMN_B_49]	524 nM
UUUGGUUUCUCGGCCGCCACUCGUUGGUUAUGGGCUUCAGGGAUAUAGUGAUGUUAUGUAUAGAAGAGGACCGGGAGAAGGUUUU [ExTryptoB.Du]	434 nM
GGGUGAGCGCGAAGGAGCGCCCUGACAGGUUGCUGCCGUGGGCAGUGAUGUUGCUCAGUCCGGCAGGUAGGUCGCGUGCUCACCC	210 nM
UGAUCUCGGCAGUGAUGUUGCAUAUGAGAAGGAGCGCACGAAAGUGCAGGUAGGUCGCUCAGCCAAAGAAAAUAAAACGAGAUCU [#SwitchBubble #K4Early]	124 nM
AUGGGUCCACGAAGGAGCGCCGUGCAGUGAUGUUGCAGUUAGAUCCAGUGAUGUUUGGGCCGGCAGGUAGGUCGCGUGGAUUUAU [Exclusion Arginine B GF 22]	243 nM
UGUCAUUGGUCGGCCGCCACUAGGACCGGGUAUAACCUAGUGAUGUUAGUAAGUACGGCCGCCACUAGGACCGGGACCGAUGACU [KL-SSTryp-B19 #DoubleAptamer]	462 nM

Same assay, conditions: Eterna round: R107; input ligand: tryptophan 2.4 mM

Sequence	apparent KD of K4 kissing-loop reporter
AAGCAUUCUUCGGAAUGCAGACCCGCUGAGGAGGAUAUGACGAAAGUCAGAAGGUUUCAGUGAUGUUGAGGCCUCCUCAAUGGUC [whbob_Ex_FMNA__2th182]	291 nM
CCAAUCUGUUACGAUACCAGUCAAAGAUAUUUUAUCAAUGCCCUCACCGAGUGAUGUUCGGACCCUUGGCAGCGUCUGGGAUAGG [ddfcmullin]	149 nM
CCUUCUCUUGAUAGUGAUGUUAUCGAGGACAAGGAUAUCAUCUCAAUGAGAAGGUGUCCUUGAUAACAUGGAGGUCUGAAACAGA [Omei KL FMN A Exc C v9]	454 nM
UAUUAAUUGUCAGGAUAUCGUAAACGAGUGAUGUUCGUAUAUCGACGAUAGUCGAUUCUAUCUAAACGAGAAGGGACAUUAUUUA [JR_SSFMNB_Sub008]	420 nM
AUUUUUUACAGAAGGAGCGUGUUUUAAUAAUCAUGGUGCUUAGCGAGUGAUGUUCGCUUUACACAGGUAGGUCGCUGUUUAUUUA [JR_Nu_ExcArginiB_Sub030]	112 nM
GAUUUAGAGGCGGCCGCCACUAGUGAUGUUAGUGAUGUUUGAUACUGAAUAUAUCUGCGUUUAGAUAGGACCGGGCCAGAUGGUG [ddcmullin]	197 nM
GAUCUGAACGAAAGUUCGGAUCAGUCCGAUACCAGUAUGGAUUCAUACCCUUGGCAGCGGUUAUCUGCUAUGGAGUGAUGUUCCA [Theophylline A K4 11]	348 nM
UUGAGACGUCAAGGAUAUUCCGCGGAAGGGCGAGCGACCCAAGUGUGAGUGAUGUUCAGCAAGCCGGAAGAAGGUGAAUUUCACC [theeternabot_sameState_KL_FMN_B_26]	937 nM
AACGUUUUGUGAAGGAGCGCGAUAAGCAGUGAUGUUGCUUACUUACAAUUUAUAUUUUACACGCAGGUAGGUCGCACAAUACGUA [JR_SSArginiB_Sub017]	173 nM
GUUGUAUACUGAAGGAGCGAGUAGUGGAAACAUAAACUCAUUGCGAGUGAUGUUCGCAGUACUCAGGUAGGUCGCAGUAAUCGUA [Exclusion Arginine B Gf 10]	456 nM
AAAUUUUCAAGUGAUACCAGACAUUUUUAUUUCUUUAUUUAUGCUAAGUGAUGUUUAGCAGUCCCUUGGCAGCACUAUUUAAUUA [JR_Nu_SSTheophyB_Sub030]	144 nM
CCAUUCAUUUACGAUACCAGUCUAAUAUAUUUAAUCAAAACCCUCGCCGAGUGAUGUUCGGACCCUUGGCAGCGUCUGCGAGAGG [oookmullin]	452 nM
CUGACUAAAUAGUCAGUGAUGUUGACUGGACGAGGACCGGUACGGCCGCCACUCGAGAGUGGUGUAAUAUAUGUCAUAUAGUCAA [Tryp A SS t3]	233 nM
AAGGUCACUACUACAGUGAUGUUGUGGGAGCAGGAUAUGCAGAAAUGCAGAAGGGCUCGCUCCAAGUGACCGAAUGAAACAUUCA [Omei KL FMN A SS A v1]	938 nM
AAAAUAAACCAGUGAUGUUGGUGUCUAGAUACCAGCGACAAAAGUCGCCCUUGGCAGCUACGGACGUACAAAAUAAGUACGUCCU [MatMod 9 - Jieux - Same State - Theophylline A]	405 nM
AAGUCAUAGGCAGGAUAUGCUUAGUAUUAAGGCCAUAUAUACGUAUAGAGUGAUGUUUUGUACCAGGCAGAAGGGCUACAUCAGU [FMN B Excl V6 (+A)]	536 nM

Sequence	apparent KD of K4 kissing-loop reporter
UGUCAUUGGUCUGAUACCAGGUUGAUCGGUAAACGAUCUCCUGGAGUGAUGUUCCAAAAUAUCCCUUGGCAGCAGACCGAUGACU [TheoBS 6 #SwitchBubble #StaticStem]	350 nM
UGACUGGACUGAAGGAGCGCUGAAGGAGCGUAAGCAGUGAUGUUGCUUACAGGUAGGUCGCAGCAGGUAGGUCGCAGUCUAGUCU	99.6 nM
AGAACUGUCUGAGAUACCAGCCAGGAAGUGAUGUUUCCAGCUCCACGAAAGUGGAGCCAUGGCCCUUGGCAGCUCAGACAGUUCA [Omei KL Theo B SS A v5]	154 nM
GCCAGUGCACGAAGGAGCGCCGUGACAGGUUACUGCCUUGGGCAGUGAUGUUGCUCAAUCUGGCAGGUAGGUCGCGUGCACUGGC	177 nM
CCGAAGAACCAGUGAUGUUGGUUGACUAGACAGGAUAUGAGCAACAUCAGAAGGGUCUGGCUUCGGGAGUGGGUUGCGCUGACCU [Onbizaes]	576 nM
GGAUAGGACGGAGGAUAUGGGCUAGGCAAGAAUAACUUGUCUAGCAAAUCCAUGAGGAGUGAUGUUCCAGAAGGUUGUCCUAUCG [FmnBX 1 G10+U75]	75.4 nM
GCCGUACGCAUGGAUACCAGCAAUAUGCUACGUUGUAGUAGUAUAACCAGUGAUGUUGGAUGCCCUUGGCAGCCAUGCGUACGGC	855 nM
GCCGUACGCAUGGAUACCAGCCGACAUGAUAUUUAGCUGGUGUCGUAGUGAUGUUACGAAGGCCCUUGGCAGCCAUGCGUACGGC	78.7 nM
UAAGAGGACCACUGCGAGAGUCCUCGAAUACGAGGACCGGUACGGCCGCCACUCGAUAAUUUGUAGUGAUGUUGCAAGUAAGAAU [BrourdMod 7 - Jieux - Same State Tryptophan A]	31.8 nM
GGUGCUGUCUGUGCCGCCCUCCUCGUCCCUCGAGGACCGGUACGGCCGCCACUCGAGUGAUGUUCGGGUAGCCAUCCCUGCCAGC [BDazzled - #20 Exc. Tryptophan A]	322 nM
GCAGGCGUAAAAGGAUAUCAGGCUCUCUAGACACGAGUGAUGUUUGUGUAGGUAACGUAAUAGGCAUGAGAAGGUUUCACUUAAA [theeternabot_sameState_KL_FMN_B_49]	416 nM
UUUGGUUUCUCGGCCGCCACUCGUUGGUUAUGGGCUUCAGGGAUAUAGUGAUGUUAUGUAUAGAAGAGGACCGGGAGAAGGUUUU [ExTryptoB.Du]	239 nM
GGGUGAGCGCGAAGGAGCGCCCUGACAGGUUGCUGCCGUGGGCAGUGAUGUUGCUCAGUCCGGCAGGUAGGUCGCGUGCUCACCC	170 nM
UGAUCUCGGCAGUGAUGUUGCAUAUGAGAAGGAGCGCACGAAAGUGCAGGUAGGUCGCUCAGCCAAAGAAAAUAAAACGAGAUCU [#SwitchBubble #K4Early]	82 nM
AUGGGUCCACGAAGGAGCGCCGUGCAGUGAUGUUGCAGUUAGAUCCAGUGAUGUUUGGGCCGGCAGGUAGGUCGCGUGGAUUUAU [Exclusion Arginine B GF 22]	222 nM
UGUCAUUGGUCGGCCGCCACUAGGACCGGGUAUAACCUAGUGAUGUUAGUAAGUACGGCCGCCACUAGGACCGGGACCGAUGACU [KL-SSTryp-B19 #DoubleAptamer]	87.5 nM
